Target: the molecule itself
Test: SDS-resistant oligomer on SDS-PAGE and immunoblot

B1: fh1-HAP2-HA (HAP2 with W173A and F177A mutations in the fusion loop) (natural protein, Chlamydomonas reinhardtii, UniProt A4GRC6 23-1139, looked up)
chain: EVIASGRLEKCVVDGVTEELDCQEKVVVTLTVGNGQSLQTEALEFSLSCLNSPDGRCPCSCSAADPTCACRDLAAPLRVSLTKSPLWASYPLQYLSSFNWKPLEVILRPSNKVCKDGDWEDSPTCGWFSQGGVRVADSQGFCCECSSSQVADDTAGSSKERTRANLDCDFWSDPLDILIGRKPVSAHCLTFDPQWYSGYELGAASLQFEIAITVEVPTAPSPTTATTSATPRTNNSSSANSTNSTNSPAPQFLSPPAPSTREVLHLGPSVPLASSASRLLSAKLLGDLAMYTQLPAISNQVLMVPQPPAAAAATGSPLDATLATNRSAWMLLDKTMLSMDGLACDKVGTGFSAFRYQPSGCGRAPQACLSGQLKDLWEADLARIADGRVPLYMITRFTGGSDTTLQSFSGGPLSFALPVTSHSQSLVTLSVAADGVRLVTNRSPGKITGAAVCRFAGTSCGGFEAVAARGYIYVNITNTGRLDSDYTLTVSNCSSNVRPIEARTLAVRAGSAASLDPPMELYVEDQAAAAARTCTVSLYDSVGAVTDSLTLSFYTNATQLVVKPSGGYNGTGDGAGVKRNGTDCSTACTNPIDVLCFVTKKCWSKFGRLLGIIGGALVGLGLLAVALKFGWLASLAASCCGGGGGAAAGGAGGGMGLGTGGGGGCFGGGQQQQQLPPAASHAMSPPQQQQRSHAEVAAGAAVAGAGAAGAAAAVLGAKHGGGGGGARGKQQHADTRHLQDRDSRAIDGGASIGSSSAGGSSSLSSYSQPREAGGRLLQPPAAAVFVPEGGGGGAAGDEGARAQSSDWDARGRSPRVADEHGSPRQRYDGVRQSPYMVSANPYDGWYDGGSGGGGGGGGGGYGREAPPPQGPPPHPVGAPPPPPRRRSLWERMWLQRPGGGGGGGGGGGGGGGGGSGGGVDQHGGRSCADAARRGGGGPGGMRGVEGLMSNGGRPNGPHPHAPPPPPPPQQQQQQQRQRRSFLESLTAMMTLPWGGGREEEAGGDRRGGGRGGAAAAHGGRGAGGGRGHPPSIGSPPPGPLQPPEYGPQGGQARRWGAGGGRGGVGGDGGGGGVGAAAYVQLSTGGRGGGGGGGRGRGGGREGPTWHNPVYDWQAPPK
- stoichiometry N: 3

— paper PMC13601591 (Nature Communications, 2026)
